Results published in patent publication US20070172423A1, “Composition and method for modulating vasculogenesis for angiogenesis” (priority 1998, published 2007).

Columns and labels:
human VEGFR-2 = biological target: T1, human VEGFR-2 (Homo sapiens, UniProt P35968); test: Binding to soluble VEGFR-2-Ig fusion protein; conditions: 35S-labeled protein in conditioned medium from 293 cells, precipitation with Ig-fusion protein
T1 construct: soluble Ig-fusion proteins containing the extracellular domains of human VEGFR-1, VEGFR-2 and VEGFR-3; made in house; host or cells: human 293 EBNA cells, transient expression
T1 sequence (P35968 20-764 limits assumed): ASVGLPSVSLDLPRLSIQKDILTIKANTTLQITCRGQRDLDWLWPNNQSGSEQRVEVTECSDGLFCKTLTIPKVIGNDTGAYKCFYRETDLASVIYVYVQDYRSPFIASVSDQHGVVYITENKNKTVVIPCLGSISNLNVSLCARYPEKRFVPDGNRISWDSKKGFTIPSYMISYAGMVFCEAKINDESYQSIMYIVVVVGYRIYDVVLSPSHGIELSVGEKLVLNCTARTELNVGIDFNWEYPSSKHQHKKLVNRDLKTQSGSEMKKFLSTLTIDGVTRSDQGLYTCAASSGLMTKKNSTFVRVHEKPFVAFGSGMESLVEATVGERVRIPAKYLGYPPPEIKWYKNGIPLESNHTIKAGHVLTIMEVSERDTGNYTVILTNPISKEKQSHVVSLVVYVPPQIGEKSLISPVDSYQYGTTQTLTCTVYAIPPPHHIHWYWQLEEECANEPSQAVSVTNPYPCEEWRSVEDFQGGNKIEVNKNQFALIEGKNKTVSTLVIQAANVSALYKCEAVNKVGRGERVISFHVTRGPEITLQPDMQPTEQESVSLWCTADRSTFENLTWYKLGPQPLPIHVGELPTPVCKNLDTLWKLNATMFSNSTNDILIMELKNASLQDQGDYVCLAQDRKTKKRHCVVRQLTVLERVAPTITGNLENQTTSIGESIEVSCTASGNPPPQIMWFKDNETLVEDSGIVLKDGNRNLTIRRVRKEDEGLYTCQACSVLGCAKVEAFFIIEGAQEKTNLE
Procedure: (§1) To assess the interactions between full length and truncated PDGF-C and the VEGF receptors, full length and truncated PDGF-C were tested for their capacity to bind to soluble Ig-fusion proteins containing the extracellular domains of human VEGFR-1, VEGFR-2 and VEGFR-3 (Olofsson et al., Proc. Natl. Acad. Sci. USA, 1998 95:11709-11714). The fusion proteins, designated VEGFR-1-Ig, VEGFR-2-Ig and VEGFR-3-Ig, were transiently expressed in human 293 EBNA cells. All Ig fusion proteins were human VEGFRs. Cells were incubated for 24 hours after transfection, washed with Dulbecco's Modified Eagle Medium (DMEM) containing 0.2% bovine serum albumin and starved for 24 hours. The fusion proteins were then precipitated from the clarified conditioned medium using protein A-Sepharose beads (Pharmacia). The beads were combined with 100 microliters of 10× binding buffer (5% bovine serum albumin, 0.2% Tween 20 and 10 µg/ml heparin) and 900 microliter of conditioned medium from 293 cells that had been transfected with mammalian expression plasmids encoding full length or truncated PDGF-C or control vector, then metabolically labeled with ^35S-cysteine and methionine (Promix, Amersham) for 4 to 6 hours. […] Labeled proteins that were bound to the Ig-fusion proteins were analyzed by SDS-PAGE under reducing conditions. Radiolabeled proteins were detected using a phosphorimager analyzer.

human VEGFR-3 = biological target: T2, human VEGFR-3 (Homo sapiens, UniProt P35916); test: Binding to soluble VEGFR-3-Ig fusion protein; conditions: 35S-labeled protein in conditioned medium from 293 cells, precipitation with Ig-fusion protein
T2 construct: soluble Ig-fusion proteins containing the extracellular domains of human VEGFR-1, VEGFR-2 and VEGFR-3; made in house; host or cells: human 293 EBNA cells, transient expression
T2 sequence (P35916 25-775 limits assumed): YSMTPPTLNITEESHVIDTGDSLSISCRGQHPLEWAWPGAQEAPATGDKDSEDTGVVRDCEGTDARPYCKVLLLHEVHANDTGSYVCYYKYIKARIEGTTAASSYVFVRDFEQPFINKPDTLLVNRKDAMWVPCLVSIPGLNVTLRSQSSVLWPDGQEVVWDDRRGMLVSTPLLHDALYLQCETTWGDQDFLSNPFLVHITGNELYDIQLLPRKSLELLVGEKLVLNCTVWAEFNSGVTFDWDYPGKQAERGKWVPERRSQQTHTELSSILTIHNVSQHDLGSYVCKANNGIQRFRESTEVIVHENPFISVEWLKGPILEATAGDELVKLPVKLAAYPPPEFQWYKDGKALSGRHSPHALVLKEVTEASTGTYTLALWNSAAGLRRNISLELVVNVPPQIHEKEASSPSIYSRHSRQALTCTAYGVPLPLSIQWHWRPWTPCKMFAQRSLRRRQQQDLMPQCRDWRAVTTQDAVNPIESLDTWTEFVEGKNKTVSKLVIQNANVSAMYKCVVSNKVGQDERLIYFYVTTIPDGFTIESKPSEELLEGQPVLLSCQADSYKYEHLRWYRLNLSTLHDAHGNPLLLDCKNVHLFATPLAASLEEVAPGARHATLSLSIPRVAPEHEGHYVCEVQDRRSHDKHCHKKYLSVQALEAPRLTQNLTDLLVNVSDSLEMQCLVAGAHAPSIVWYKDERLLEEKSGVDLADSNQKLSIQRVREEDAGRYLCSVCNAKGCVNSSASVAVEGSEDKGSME
Procedure: as §1

NIH-3T3 fibroblast cells = test: NIH-3T3 proliferation assay; assay type: cell-based; conditions: two days, different concentrations
Procedure: (§2) Cell migration assays were performed on growth arrested confluent HMVEC, BAEC or hSMC cells. Cell monolayers were wounded with a rubber policeman and washed with serum-free medium. Dishes were then incubated for 20 hours in serum-free medium containing VEGF165, PDGF-AA, (R&D Systems, Minneapolis USA) or PDGF-CC. Each assay included two dishes per condition and was repeated three times independently. Cells were photographed at 40× magnification, and migration percentage corresponding to the ratio between area of the cells and the total area of the wound (Biocom visiol@b 2000 version 4.52, San Diego). For HMVEC proliferation assay, cells were seeded in 96-well plates (5 wells per condition), and incubated with VEGF, PDGF-AA, or PDGF-CC (50 ng/ml) after serum starvation. After 7 days, viable cells were counted using the cell Titer-glo luminescent cell viability assay. For NIH-3T3 and hSMC proliferation assay, cells cultured in 96-well plates were serum-starved overnight, followed by treatment with growth factors at different concentrations. Two days later, cell numbers were counted and proliferation percentage calculated, using cells cultured in medium containing 10% serum as control. Aortic ring assay was performed as described 51. […] Aortic rings were analysed at day 9 of culturing. […]

hSMC = hSMC proliferation assay; assay type: cell-based, human; conditions: two days, different concentrations
Procedure: as §2

PDGF alpha receptors = PDGF alpha receptors (Homo sapiens, UniProt P16234); test: Binding of radiolabeled truncated PDGF-C to PAE-1 cells expressing PDGF alpha receptors; set-up: expressed in transfected cells; host or cells: porcine aortic endothelial (PAE-1) cells; conditions: 125I-labeled protein, on ice 90 minutes
PDGF alpha receptors, sequence (P16234 24-1089): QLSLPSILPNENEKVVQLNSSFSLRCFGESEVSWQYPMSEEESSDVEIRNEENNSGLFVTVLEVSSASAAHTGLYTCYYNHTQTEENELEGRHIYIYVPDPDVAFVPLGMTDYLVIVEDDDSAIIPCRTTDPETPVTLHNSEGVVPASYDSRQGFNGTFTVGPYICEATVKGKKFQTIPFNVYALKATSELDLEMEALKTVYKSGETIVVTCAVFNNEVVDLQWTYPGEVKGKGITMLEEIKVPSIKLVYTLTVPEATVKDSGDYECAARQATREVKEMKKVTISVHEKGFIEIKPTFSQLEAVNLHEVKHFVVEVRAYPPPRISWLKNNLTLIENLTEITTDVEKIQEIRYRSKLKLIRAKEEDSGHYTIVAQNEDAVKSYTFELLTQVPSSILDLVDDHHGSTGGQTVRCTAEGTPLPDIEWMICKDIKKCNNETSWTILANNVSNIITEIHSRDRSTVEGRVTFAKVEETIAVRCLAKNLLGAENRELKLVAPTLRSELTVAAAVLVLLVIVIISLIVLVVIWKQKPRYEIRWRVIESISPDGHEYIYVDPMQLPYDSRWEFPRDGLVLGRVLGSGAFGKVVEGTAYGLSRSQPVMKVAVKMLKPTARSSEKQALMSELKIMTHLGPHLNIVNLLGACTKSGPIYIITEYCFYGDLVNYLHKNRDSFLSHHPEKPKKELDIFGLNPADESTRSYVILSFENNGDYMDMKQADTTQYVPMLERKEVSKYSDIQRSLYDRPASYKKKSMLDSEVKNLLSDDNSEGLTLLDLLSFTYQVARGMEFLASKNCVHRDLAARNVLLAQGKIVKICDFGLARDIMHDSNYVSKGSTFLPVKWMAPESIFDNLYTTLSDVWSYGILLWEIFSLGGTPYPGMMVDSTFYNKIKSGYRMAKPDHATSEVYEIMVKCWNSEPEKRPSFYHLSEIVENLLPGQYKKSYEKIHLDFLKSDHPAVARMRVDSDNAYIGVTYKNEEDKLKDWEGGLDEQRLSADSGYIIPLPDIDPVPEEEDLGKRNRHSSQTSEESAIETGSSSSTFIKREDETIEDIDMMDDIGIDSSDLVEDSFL
Procedure: To assess the interactions between truncated PDGF-C and the PDGF alpha and beta receptors, truncated PDGF-C was tested for its capacity to bind to porcine aortic endothelial-1 (PAE-1) cells expressing PDGF alpha or beta receptors, respectively (Eriksson et al., EMBO J, 1992 11:543-550). The binding experiments were performed essentially as described in Heldin et al. (EMBO J, 1988 7:1387 1393). Five micrograms of truncated PDGF-C protein in ten microliters of sodium borate buffer was radiolabeled using the Bolton-Hunter reagent (Amersham) to a specific activity of 4×10^5 cpm/ng. Different concentrations of radiolabeled truncated PDGF-C, with or without added unlabeled protein, in binding buffer (PBS containing 1 mg/ml of bovine serum albumin) was added to the receptor expressing PAE-1 cells plated in 24-well culture dishes on ice for 90 minutes. After three washes with binding buffer, cell-bound ^125I-labeled PDGF-C was extracted by lysis of cells in 20 mM Tris-HCl, pH 7.5, 10% glycerol, 1% Triton X-100. The amount of cell-bound radioactivity was determined in a gamma-counter. Non-specific binding was estimated by including a 100-fold molar excess of truncated PDGF-C in some experiments. […] The binding was specific as radiolabeled PDGF-C was quantitatively displaced by a 100-fold molar excess of unlabeled protein.

B1: PDGF-CC: recombinant human PDGF-CC core domain homodimer, residues 230-345 of full-length PDGF-C (SEQ ID NO:40), produced in baculovirus infected insect cells (protein)
chain: GRKSRVVDLNLLTEEVRLYSCTPRNFSVSIREELKRTDTIFWPGCLLVKRCGGNCACCLHNCNECQCVPSKVTKKYHEVLQLRPKTGVRGLHKSLTDVALEHHEECDCVCRGSTGG
modifications: homodimer; PDGF-C core domain
interaction with VEGFR-2-Ig (human VEGFR-2): failed to show any interaction
interaction with VEGFR-3-Ig (human VEGFR-3): failed to show any interaction
proliferation of cultured NIH-3T3 fibroblast cells (NIH-3T3 fibroblast cells): stimulated
proliferation of cultured hSMC cells (hSMC): stimulated
binding to cells expressing PDGF alpha receptors (PDGF alpha receptors): binds
